experiment: soluble on expression in E. coli; label from the status in PepcDB or PDB records

Sequence	soluble on expression in E. coli
MTNLPMNKLIDEVNNELSVAINKSVMDTQLEESMLYSLNAGGKRIRPVLLLLTLDSLNTEYELGMKSAIALEMIHTYSLIHDDLPAMDNDDYRRGKLTNHKVYGEWTAILAGDALLTKAFELISSDDRLTDEVKIKVLQRLSIASGHVGMVGGQMLDMQSEGQPIDLETLEMIHKTKTGALLTFAVMSAADIANVDDTTKEHLESYSYHLGMMFQIKDDLLDCYGDEAKLGKKVGSDLENNKSTYVSLLGKDGAEDKLTYHRDAAVDELTQIDEQFNTKHLLEIVDLFYSRDHKGHHHHHH	soluble
MALELSDIRQQITQIDRSLLKLLSERHRLAFDVVRSKEISQKSLRDVEREQQLLQELVQFAENENYQLEAQYITSIFQKIIEDSVLTQQVYLQNKLNEQRNQNLHIAFLGKRGSYSNLAARNYAARYQKQFVELGCQSFEQVFEKVQTGEADFGVLPLENTTSGAINEVYDLLQHTDLSLVGELAYPIKHCVLVNDKTDLNQIDTLYSHPQVIQQCSQFIHSLDRVHIEYCESSSHAMQLVASLNKPNIAALGNEDGGKLYGLSVLKTNIANQENNITRFIVVAKEPREVSSQIPTKTLLLMTTSQQAGALVDALLVFKKHQINMTKLESRPIYGKPWEEMFYLEIEANIHHPDTKQALEELKNYSNYLKILGCYPSEIVKPVSV	not soluble
MKKEIKFSLMYRDMWQSSGKYQPRKDQLERIAPVIVEMGCFARVETNGGAFEQVNLLYGENPNKAVRAFTKPLNEAGIQTHMLDRGLNGLRMFPVPADVRRLMYKVKKAQGVDITRIFDGLNDARNIIPSIKYALEAGMIPQATLCITFSPVHTVEYYSNLADELIAAGAPEICLKDMAGIGRPHFLGQLVKSIKTKHPDVIIEYHGHSGPGFSVASMLEVCENGADIIDVAMEPISWGKVHPDVITIQQMLKDAGFKVPEINMDAYMKARSLTQEFIDDFLGYFMDPSNKETSSLLVGCGLPGGMMGSMMADLKGVHAGINMFLKGKGEPEMTIDQLLVRLFQEVEYVWPRLGYPPLVTPFSQYVKNVALMNVYNMIRGEGRWQAIDQNTWGMILGKSGRLPGKLDPEIIALAKEKGMEFSDADPQQFYPDALDEFRKEMDQNGWEYGPDDEELFELAMHDRQYRDYKSGVAKERFNADLDKAKADRMAKQGYSDEDIKKAKRAGCDPIVAPCSGRLYWEIDTEEQSIAPAIGAEYRTGQPFCYIENQFGYIEKVYCTFTGRITEVVAQGTVVKKGDEIAYLRTAEKEIMWEGANEHIVRVETMPEPRKRITKSAQKN	not soluble
MAAEEGAVIACHTKQEFDTHMANGKDTGKLVIIDFTASWCGPCRVIAPVFAEYAKKFPGAIFLKVDVDELKDVAEAYNVEAMPTFLFIKDGEKVDSVVGGRKDDIHTKIVALMGSAST	soluble
MIANHVSLLIMGIDENQERQKEYNGAFHTDALLLATFNKDDKTVKLTSIPRDTYTYVPVEKKTDNITHAYGSGIVNNGKDGGPQASVEAVEQLLQVPVDYFVKFNFGSFTKIVDGLDGIEVDVPVEFTEQNSKDEPDAIHLKKGLQKLNGEEALALARTRHIDSDAMRGQRQQLVIESILSKLKSVGSITKLEKIVEAVDDDFKTNLVMDDILSFYKYGLNGSVEKIQLAGDDLYLPNGPNGQRVYYYNPNKKDLQSLSNTLRTHLGLSEKQIEENLEHHHHHH	soluble
APPAAGQQQPPREPPAAPGAWRQQIQWENNGQVFSLLSLGSQYQPQRRRDPGAAVPGAANASAQQPRTPILLIRDNRTAAARTRTAGSSGVTAGRPRPTARHWFQAGYSTSRAREAGASRAENQTAPGEVPALSNLRPPSRVDGMVGDDPYNPYKYSDDNPYYNYYDTYERPRPGGRYRPGYGTGYFQYGLPDLVADPYYIQASTYVQKMSMYNLRCAAEENCLASTAYRADVRDYDHRVLLRFPQRVKNQGTSDFLPSRPRYSWEWHSCHQHYHSMDEFSHYDLLDANTQRRVAEGHKASFCLEDTSCDYGYHRRFACTAHTQGLSPGCYDTYGADIDCQWIDITDVKPGNYILKVSVNPSYLVPESDYTNNVVRCDIRYTGHHAYASGCTISPY	soluble

Reference: the DeepSol protein solubility set
